What all share (test): EMSA
In one data set the target is NPR1 (Arabidopsis thaliana, UniProt P93002 SEQ:1-593). As to conditions: tags: His10-MBP (PreScission site) N-terminal, C-terminal Strep tag; E. coli; chain copies: 2 (stated); label: 6-FAM. The method, then: (§1) The npr1(dim) mutant (L49D/F53D/V56D/V83K) was cloned into the pTrcHis vector (Thermo Fisher Scientific) as a His10-MBP fusion protein containing a PreScission protease site following MBP and a C-terminal Strep tag, and was expressed and purified similarly to the WT NPR 1 protein. Purified TGA3 (Asn87-Thr384) at a concentration of 0.6 μM and WT NPR1 or the npr1(dim) mutant at a concentration of 8 μM were used in the EMSA with the 6-fluorescein (6-FAM)-labelled oligonucleotide probes (200 nM) containing the LS5 and LS7 as-I cis-elements of the SA-responsive PRI gene promoter (LS5/LS7, 6-FAM-C-ggg[…]ggg) or DNA sequences with the two as-1 regions replaced with adenosines (LS5/LS7, 6-FAM-C-ggg[…]ggg), with the LS7 as-1 element replaced with adenosines (LS5/LS7, 6-FAM-C-ggg[…]-GAggg) or with the LS5 as-1 element replaced with adenosines (LS5/LS7, 6-FAM-C-ggg[…]ggg) as well as their complementary oligonucleotides (Integrated DNA Technologies). The uppercase bases indicate the LS5/LS7 sequence; the lowercase bases indicate overhangs outside the LS5/LS7 sequence; and bases replaced with adenosines are indicated with A's in the small capital font. Pairs of complementary DNA strands were annealed before the binding reaction. For each binding reaction, the desired protein combination was mixed with the target DNA probe together with 30 ng/μL of poly (dI-dC) (non-specific competitor, Thermo Fisher Scientific) in a binding buffer containing 20 mM HEPES (pH 8.0), 300 mM NaCl, 10% glycerol, 1 mM DTT and 0.2 mM SA. […] After electrophoresis, the gel was scanned with the Typhoon FLA 7000 imager (GE Healthcare).

The next data set has as its target T1, TGA3 (Asn87-Thr384) (Arabidopsis thaliana, UniProt Q39234 Q39234:87-384).
T1 sequence: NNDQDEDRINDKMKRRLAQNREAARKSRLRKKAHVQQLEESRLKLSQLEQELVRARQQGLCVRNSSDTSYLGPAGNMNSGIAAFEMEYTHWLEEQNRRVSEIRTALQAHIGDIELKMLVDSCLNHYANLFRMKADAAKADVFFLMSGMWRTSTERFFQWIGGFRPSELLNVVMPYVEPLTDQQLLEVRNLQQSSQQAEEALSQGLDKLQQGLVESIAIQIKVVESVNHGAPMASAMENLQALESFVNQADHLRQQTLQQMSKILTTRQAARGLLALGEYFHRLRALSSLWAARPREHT
The note with it: tags: His10-MBP (PreScission site) N-terminal, C-terminal tandem Flag-HA; AT1G22070; E. coli; label: 6-FAM. The method, then:
as §1

The target of data set [1] is TGA3 (Asn87-Thr384) + NPR1 complex (Arabidopsis thaliana, UniProt Q39234;P93002 Q39234:87-384,P93002:1-593). As to conditions: tags: TGA3-Flag-HA; NPR1-Strep; chain copies: TGA3 dimer x2 + NPR1 dimer (stated); label: 6-FAM. The protocol:
as §1

B1: PR1 promoter LS5/LS7 (dsDNA)
DNA 1: GGGCTATGACGTAAGTAAAATAGTGACGTAGAGAGGG
DNA 2: CCCTCTCTACGTCACTATTTTACTTACGTCATAGCCC
As to B1, the binding result with NPR1 is on record as “no binding”; in the data set with TGA3 (Asn87-Thr384), “binds”; in data set [1], “binds”.

The values above are taken from patent publication US20240368617A1, “NPR1 VARIANT TO ENHANCE PLANT RESISTANCE TO BIOTIC AND ABIOTIC STRESSES AND METHOD THEREOF” (Duke University, published 2024).
